# Assay: soluble on expression in E. coli; label from the status in PepcDB or PDB records
row,Sequence,soluble on expression in E. coli
1,GPGSMDGFRLYMEGISLPEGSMRRANAELIGAINSPDPMVQHSGLQMLCDQLTMSSFISPSTMTTIPLVLPSLLRCIASSQVREVFITAARALTYIIDAFPRTFETFPTRDTLIEVLLQHLRSIQDVELSEQCITCLEMITRSQTGSRELLHNNGVEAVLGFADFFTLHKQRQIWTIVQRLVGEVDESSVQHITACLPTLRIGMTNGDSEIRQKAIATLAQAIEGVKTDRAIVETVFGDAADRIAVLLHERDVNDDTLSSALSLLYAGVQWSAGIAASVIQSDLLNTLLSLLQSTPVPAVVAEQHTAPSAGAGRVARRSAAAELVVGRDSTTDSGGGAGTEPAAARTTMLTSHQRTIVCRLLASLLIPCRTGAAEQLERLEMLTQRPLLTGARAHGKPVGHGRRR,not soluble
2,GPGSMDPNTCAPASAVTDEQPLTLLWGTWEMWCDMPQRQQGQSTENTNWLEQVKSIGLFDSAEGFWGIFNCTILPSQLPPNGSYYLFRKHIAPMWEHEANRRGGKWVIPFTGKASRSEGDLQPVDEAWQTLCLSAIGELFPGDEEEICGVTVSRGRQRTLPSGHATSALSEWKLCLWTRSADNRGSQIRIAEYIRKQLHLQPPSKEASRDGKSGEQDTLMEMPRSPDRSPVAKMREASGIPSAMTYVAHRDLMEAKQEFVKGGSSVAQAFRPKYTLAIDVRNEGV,soluble
3,GPGSMDQDLSVCEQEYRKLLDPEEPLFSRTRELYRLKESILRTPAGVHVLAKAVDTTNSVLLQHELVYNLGQSAMVEACPHLERFIRAVGKYDIVTRHEAVEALGAIGDPACIPLLRHFMEPANEPEAAIRESCELALKRIEMLEEKGKEAVGPAANCPFVSIDPAPAFNGTNTGGSAPYTVSELENLLCDTTGAVSLWLRYQAMFTLRNIGTPEAVAALSRALRQDNTSALLRHEVAFVLGQLEHPASQPALLDALRDEHEAPMVRHEAAEALGAIADPKTLPALEEYAKHKEAIVRDSCVVALEMHKYWSQFNNQRIQH,soluble
4,GPGSMEEFYGMEVFAGKTAKPNISADRVLHVTQVALPPNASHAITLLVKTEGKSFVLATLDPQQALFHVSVDMLFSGKQKLAFTCEGATGAVHIIGYTQLAEEEEDAIDDEDDDDMMDDEDVA,soluble
5,GPGSMEGLSPPETDECAKPHNRECNTTPSSGSPPSNIPPQQLLCSVRSGMHSNLTESAWESRESNSGYAHEKQSGVDGDACTRYYQRLHRFYEQYNPKNLSRISEYLAAYKGKEEQLMAILVGKYGPEPVDRGPQTNLSCCSGDDSVMHFSGKRYRIPTVVTPQQGNTDCETPYWGNSPLIGERDILGLLSSLETANVELQKCYIGPSAQHPTSSWNGMTYVTRAEIFTPNEETFLGHKWTFTLGSKKVLVHEGSAYHRATFFCTDECQYRGRHERWRLCVYTSSVDSLYLVRVIWDPVVYLEPLPLDRSALSQHSSSEAMPIAGSSVSYQTSCGKGNTEPEQPLISATMINIMTMLENMDKKISGRFDALEARFSFLESKLLGAVDDKQRTEDR,not soluble
6,GPGSMERIPLVVRRMVAAEQSCGFVHFFASLADASATPLVIEAKAFSSAAAGGAADDAAPTYQLVYDVMRSRNGHILFKKSYAERFTHSLALAAPVHALPAQLRSLVQSRLQAYIESPGVYLDGATERNVKLLSWIPATAASTTQEEAFPIPGIVMLVKSSYPSESMYREGAKLGLLFNAHRTNPNAKVAQMGLRDRANAYLAENDVYEVLLVHDAADAYLVPEGSRSNYLLQKSDGTWWCSAEEDILVGITLKTTYRVVQACGLGSVQHAKLTLKDILESKSLFILGTSPTIMPVQSVLLYRDTETRRLYEEAVRGLGTTAGTVQQVSDDKAELLFPVNVELAAALRAQYFAEAASS,not soluble
7,GPGSMEVKIGKDVALLTAHKTYRDDGEDMVKAVATYVPFMNYVAACESSGLVPSAFLVRNVRHIARRVVGVIMDVECNTPTGKIVQPVEMSDFSPAILLPVVIVETVRYALLLQRRCVAVGCGLTTEAFCGAKDSGDNITWQNHELLTSAGFDLRDVRKLGFGEYSVGNEGLPPYTLHTIKKGMSSEEFEQLQKISAGTADASLFAVRLEDVMSSVNDAKAGLAASVLLLES,soluble
8,GPGSMFGANAPSTGIGAPAAGFGKPPATFGTSALSGANTTATAGRGFGAATGASATPGFGIAFAAPSTSTAAAGGASGFGSSAASGTTGFGGAAGFGSSAASGTTGFGGAAGFGSSAASGTTGFGAGGGFGAKPGSGFGVSATSGFGAPATGTTGFGAGATAPAAIGGWGAQQPNPAMQPQAPQQPQPTVTLQDFARQSALASYLVKLDESYNALHPNCRFRAFVYNSCGAGQVMDAIQKERYTAHLNGGGCSEEAYMQALHQNPDPGRLYPSPIHFSQELLRRTEKQREAVKVLQKKVTELLQDIDTVAAMDAANVRRQREVEQEEVMLQHRWYSLLCKMELLRRHGSSCGEEGLLNSRVEQLRKLLRAPGRFSQLLSELRPFLTEEASRVAMITQQSANKTEARQQQQQCRFVGSAPAAWRNAGSQPLLRTEVDPYIMKDWVQFAKQMQDGIETLNELLKTDLKEMQAIRSRVEAS,not soluble
9,GPGSMFLNNNMVDDARTVQLLEEIDVQLERWGKKYGLDPSNEKQKRIPTAGGGDIKPSASSQRSHDVPNVKFVNDRTNSKVGIVETAAVAAPQGFDPSALFDRIDMLEKKLKVAEEERMILSERLFAAERIVVEVVNAQKGLQDEWAALSTQSFSISHLDDDRRTIVDSGKTSKRDCAFTSYTTQSRQSTQSGNSSVAGLSAFVSPAKEDTSRSCLQSPVRNAGSSGSVLGGEEEEDVVGATERRLFALDDLAQRLAV,not soluble
10,GPGSMHDLVADDSQDGDNEVISSEVPLNKHAGDEEATRTSTFKYKKGILINQGYEFDGSSTTCAEVPASAWGSNITGDEEATTTSYVRVYVLVSSQAALKELALPPVGSKGASGVPHATGYVPLTAATRAILGANMENCGW,not soluble
11,GPGSMKATIITPGETYRILAPASSLHKYLTDSYWCSAMEEVCEGKLDGVAVRYTGQQLVLLQFRPKQLSPAGYRYPISMSIPVEYLVPISTEESTEDHNICKHDTNYGTKESTFLGSGFAPLCVVCGRYNVPGMVLRHHGYKCPECVGHKSTRKLRMEGARRR,not soluble
12,GPGSMKGKAGRSIAAISDVRAAVLRFCDEQLSRRLDTQPVAEVHQKVSACVQTVDPAMTPYIFGSTAVLGVHEQGSDVDFVCLSPTDVQDGKGADAVSEVAKGLQSDFLFRLGEVVKREHYLWGIELVRRTRVPVLRVKGGLGVDGVSFDVTANRRNGVRNSALLRAYFTQCPEARWLSMLVKQWSKKTGLNASVEGGCITSYGWNIMIVYYLLRRRLVTLVPVESCDVADIAPMPPHMPLESLQQGGQGLADMLMDFVSYYLDEFAPETEVMSLTRAAGETTTEMLSWTKQAEDMARIRGEKIHYRWCIEDPYEYDLNVGRNVTPFKLMLLRKHLERARETALLLLATPPPSATARSVK,not soluble
13,GPGSMKPLRIKKRESAGTPAEDEALTGLTSSASSVAAGSLAPRHVPSPPAVKGGRLPAHPGHDSGPSPAAATPAPTAKVSAAVKFSSELDNAAVEAYLEYLTHPHMSWESASRHVAHCREVIEEHRNSIYARSLAMLRRSSFASTIGSEGGDLDALETSTTSSVASAPAGFPRTAPNGSNKATGTLRKGRLGDAGSPLLPSDAAEPLAIVAHSSAAVSSSHSADSASCTSTGTGQRAPSNKGRLLRGPALAGPPRPHRTSSSATAPAAVGESVLGVGGAKLLGGSGSVFLVNGRSSAVTSRTASRDSTDRLPPVAPQGGGESLIHCKRTGGARAAVPSPQPKHRLK,soluble
14,GPGSMLGSPSDPPPRDAAGDAAAPVSAASSPSAALPVAAVYSTGSQALQAELHQLRERLRVSDEWNMRLQLQLQELLQLPQNEVQDMRQRMQDPDIAIPLLQCYDAVIHEKTEEVERLRREAVDLQTQLDAFRKDQLDVSNAVRMAEELAKSVQGKAAAEVQRYLEAVRELQEELVRLRIEVTRALDAENIAKQDALRIAERAASLETALEAAKQATSKAEAAREAAERKWTIQEQQAEEQEMGAVVQKAQLQRITQENADKAQELERLRAKMTHALRQASDNHAAHLRIVEERHRMIVEDLRSVNRTQELEVLKLRAQLARCDMTNPSGAGRGTGASSASTSSLRLQSTAELLEAQTRQAQEMELKRLHGEVSALQLQRDDAVRQCEQRTSRLQRDFDQQLQDAQRQLQSAQRSFSEARSRCEELEETKAAQEASLRKARDELRQAQQGGQQYRLSADSSARKLASAQQQLAEASKRFSTLQEEKQSAVRQAHERVSELEANVAQALQEVQSAKERAYAEVEEVQRRYEQLRLQNSKLQDDLREREAALVKKERERSILVAQIGRLEDGLEAHKRQMMESDRRVQQLEQQLIAMRQQQREGFLSLEQVKLQNAQLTRTRDQLAEMLQARSL,not soluble
15,GPGSMLHIDFCIAADAQEALEESGKPNTATVAVPIILEKEVLKLLAPPVCSSDGGFEYDLNATRTLLGAKGATAAYIVVRTAPSTQYVVIYVSDTTSAKNRMLYSTGLSRVVEATPHAQKRTVRISSVSELLPSLFEAESKKVKEALMTESERHHAAIARMEVAPQPVALPGVAVQITTDADDGLSQFAGGAVEVATFKIEAGQLQLDKTVAQLNGNLDQVKSILTDADPRFVLLRYPSPKTQLAEAVMVYVCPPTCSPKIKIQYASSAAAFREQALRHKIQLAHKVETDTTATLADDVRSAFEPFPSADARKTHGRLSSCPPTSWAPKGHSMLI,soluble
16,GPGSMLKFRLPYTHKKIGFGDSSRKVNSSLIGPDGTVNYLRGDILLPIWTRPTSTEGRLVVPRGAHRVPYKVAQVENCFFFFNARVREQVHFNHILLPDENLDHHYDAAAEVNCLLKYLQFLHPELREASAAVLRREVKHISTSITAHLRVNFQDVVRRREYLLLKQARSGQSEEEGDESDNEAVDADTAPNCGAQLGSSWETFAKEIIQAASKERARVVWRRNVEETGSDVRSGFWVTTIMRQ,not soluble
17,GPGSMLRLGQPTLTAMRCVPAASASATAVAPTTSYPSTSAALLANTRAIHGEVRHQNTDYDNTRIPWDFTTSSYEKIHNEILPKFPRGRRISATIPLLHLAQQQQGGYIPVTAMYKIAKICEVPPMHVFETVTFYSMFNRHPVGKYHIQFCRTTPCMLCGADELMERTMHYLNVRMHGTTSDGLITIGEMECLGACVNAPMLVVSDYSNPPNFSYDYMEDLTWESIKTLVENLRGGKPFKIGSQRLDRRYAEPAGGRTSLLFKEPPGPYCRDFDAEPDKKADAASPKK,not soluble
18,GPGSMLRRLGSTLFCSVTLANGTVLKGDLNPHNPSLLLKGITILPDGRVYSGSYDATSGFPLPGSQLEEDGDLYRGDFNTQWQREGRGEAWLADGTHYAGVFKNDEITEGIVRIPNGTTEVVFEGTLSDEAFVKGKLTQSDFVYEGEFSDNEPHGKGKLVFATGAVQEGTFFHGKLHGPDCKMKLDGGFVYVGEFLDGQIRRGTLYTPTYTYEGEFNEHGRAQGEGTQTYLINEPRLTFTGIWTNGALVRGVCMDEYGSAVDWQNNDELQAKVLGGATGKGSESVGLNSYCSARMKEAAQLHSDMQRSYAEDAEAVAQSTGRFPTKMDLGYEGSIAHENEAVMQAQQRQMQDIERSKEVLSDRARDFGPIASGSRGNIIGEIDENMARIQFRRQVGAEEVSAARVDEQFERFMKSFKKPSPLPGAPAQVAQKLNIDGNAPWKAFTPLK,soluble
19,GPGSMLSQYLRKRVSVVTVDGRNLVGVLHAADQLLNIVLTSCVERTGAPYDFDDGAAEEDNGSVVDEGVSTAFSGGDTASGALPPLEEVHLGVMMLRGADVVSIAAIDVYEEAGTNVKDWRGRDMPPATAVARSW,soluble
